Experimental data: the RNAGym collection of RNA variant scans (doi:10.1101/gr.219683.116)

B1: mRNA-splicing (parent)
chain: AGUUGCUGCUGGGAGCUCCAGCACAGUGAAAUGGACAGAAGGGCAGAGCAA

Variants of: B1
Experiment: exon inclusion enrichment index; higher = more inclusion; WT1 exon 5 minigene, HEK293

Variant	exon inclusion enrichment index
C6A U7A C9A U10A C36G A37C	0.129
G5U G8U C9U G43C C44A	0.722
G5U G8U C9U G43C C44U	0.0876
G5U G8U C9U G43C C44G	1.3
G5U G8U C9U U32A	0.11
G5U G8U C9U U32G	0.00207
G5U G8U C9U U32C	0.344
C6A U7A C9A U10A A39U A40U	0.184
C6A U7A C9A U10A A39U A40C	1.19
C6A U7A C9A U10A A39U A40G	0.0729
G5U G8U C9U U32C G33C	0.216
G5U G8U C9U U32C G33U	0.0499
G5U G8U C9U U32C G33A	0.0483
G5U G8U C9U U17G C18U	0.0929
G5U G8U C9U U17G C18G	0.13
G5U G8U C9U U17G C18A	0.124
C6A U7A C9A U10A A14G G15C	0.529
C6A U7A C9A U10A A14G G15A	0.841
C6A U7A C9A U10A A14G G15U	0.274
C6A U7A C9A U10A C24A	0.545
C6A U7A C9A U10A C24G	0.763

Variant	exon inclusion enrichment index
C6A U7A C9A U10A C24U	0.161
C6A U7A C9A U10A A25U	1.04
C6A U7A C9A U10A A25C	2.61
C6A U7A C9A U10A A25G	1.94
C6A U7A C9A U10A C19G	0.576
C6A U7A C9A U10A C19A	0.348
C6A U7A C9A U10A C19U	0.0565
G5U U7C G8A U10A	0.168
G5U U7C G8A U10C	1.83
G5U U7C C9U	0.916
C6A U7A C9A U10A A40G	0.737
C6A U7A C9A U10A A40U	0.579
C6A U7A C9A U10A A40C	1.8
C6A U7A C9A U10A A39G	0.404
C6A U7A C9A U10A A39U	0.0237
C6A U7A C9A U10A A39C	0.201
C6A U7A C9A U10A A14C G15A	0.473
C6A U7A C9A U10A A14C G15U	0.408
C6A U7A C9A U10A A14C G15C	0.452
C6A U7A C9A U10A A25C G26U	1.21
C6A U7A C9A U10A A25C G26A	1.67

Variant	exon inclusion enrichment index
C6A U7A C9A U10A A25C G26C	1.25
G5U G8U C9U U10C	0.561
G5U G8U C9U U10A	0.00828
G5U G8U C9U U10G	0.095
G5U G8U C9U U17A C18A	0.0626
G5U G8U C9U U17A C18U	0.0627
G5U G8U C9U U17A C18G	0.0888
G5U G8U C9U U27C	0.478
G5U G8U C9U U27G	0.0266
G5U G8U C9U U27A	0.208
G5U G8U U10G	1.8
G5U G8U U10C	1.8
G5U G8U U10A	0.444
C6A U7A C9A U10A C19G A20G	0.289
C6A U7A C9A U10A C19G A20U	0.62
C6A U7A C9A U10A C19G A20C	1.03
C6A U7A C9A U10A A31U U32C	1.09
C6A U7A C9A U10A A31U U32A	0.0674
C6A U7A C9A U10A A31U U32G	0.311
C6A U7A C9A U10A A37C G38A	0.719
C6A U7A C9A U10A A37C G38C	0.896

Variant	exon inclusion enrichment index
C6A U7A C9A U10A A37C G38U	0.426
G5U U7A G8A C9U	0.454
C6A U7A C9A	1.65
G5U U7A C9A U10A	0.286
C6A U7A C9A U10A A29C A30G	1.51
C6A U7A C9A U10A A29C A30C	1.17
C6A U7A C9A U10A A29C A30U	0.34
C6A U7A C9A U10A C16A	0.669
C6A U7A C9A U10A C16G	0.188
C6A U7A C9A U10A C16U	0.472
C6A C9A U10C	2.01
C6A C9A U10A	0.333
C6A U7A C9A U10A A30U A31C	0.579
C6A U7A C9A U10A A30U A31G	0.653
C6A U7A C9A U10A A30U A31U	0.426
C6A G8U C9A U10C	0.728
C6A G8U C9A U10A	0.023
G5U G8U C9U U17A	0.136
G5U G8U C9U U17C	0.0866
G5U G8U C9U U17G	0.13
